Assay results taken from PMC6581901, “The SRP signal sequence of KdpD” (Scientific Reports, 2019).
Residue numbers refer to the chain shown, from its start.

How the values were obtained:
[1] = target: T1, SRP reconstituted from wild-type Ffh (406C) and 4.5S RNA (E. coli, UniProt P0AGD7 1-453); test: cross-linking; disulfide cross-linking with 1 mM copper phenanthroline; 2 µM reconstituted SRP (Ffh + 3 µM 4.5S RNA) with 20 µM peptide, 1 h on ice, 50 mM Tris pH 7.4, 150 mM NaCl, 10 mM MgCl2; TCA precipitation, SDS-PAGE with or without DTT; conditions: both partners purified
T1 construct: Ffh (fifty-four-homolog), 48-kDa protein component of E. coli SRP, expressed from pMS-Ffh-C-Strep; Ribonucleoprotein: Ffh with a 1.5-fold molar excess of 4.5S RNA; the RNA is not written as a chain; also called wildtype SRP; source: E. coli BL21 (DE3), purified (Strep-Tactin, Superdex 75); reconstituted with in vitro transcribed 4.5S RNA
T1 sequence (looked up): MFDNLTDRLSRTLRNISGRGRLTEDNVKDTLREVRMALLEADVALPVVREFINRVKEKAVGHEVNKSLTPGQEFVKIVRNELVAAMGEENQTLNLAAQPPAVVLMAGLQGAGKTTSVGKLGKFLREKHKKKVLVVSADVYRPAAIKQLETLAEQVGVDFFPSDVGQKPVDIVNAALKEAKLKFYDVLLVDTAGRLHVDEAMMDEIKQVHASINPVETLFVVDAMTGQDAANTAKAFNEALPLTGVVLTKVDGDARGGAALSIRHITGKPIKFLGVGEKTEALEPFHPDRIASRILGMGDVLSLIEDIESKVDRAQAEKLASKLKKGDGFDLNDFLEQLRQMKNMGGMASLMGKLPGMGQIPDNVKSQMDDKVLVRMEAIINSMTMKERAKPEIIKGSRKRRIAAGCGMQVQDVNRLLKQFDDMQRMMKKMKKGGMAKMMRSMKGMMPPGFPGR

[2] = target: T2, SRP reconstituted from Ffh 406S/423C and 4.5S RNA (E. coli, UniProt P0AGD7 1-453, M423C | C406S); test: as above; conditions: both partners purified
T2 construct: Ffh of E. coli SRP with a cysteine at 423 (M domain pocket) and a serine at 406, from pMS-Ffh-M423C-C-Strep; Ribonucleoprotein with 4.5S RNA; also called SRP 423; Ffh M423C; source: E. coli BL21 (DE3), purified (Strep-Tactin, Superdex 75); reconstituted with in vitro transcribed 4.5S RNA
T2 sequence (looked up): T1 sequence (looked up) with C406S, M423C

B1: KdpD peptide (residues 22-48), in vitro synthesized (peptide)
peptide: Ac-RGKLKVFFGACAGVGKTWAMLAEAQRL-NH2
notes: also called KdpD22-48; KdpD22–48 peptide; source: synthetic peptide (GENOSPHERE Biotechnologies, purity >95%)
B1: binds [1]; binds [2].
